Experiments:
[1] = test system: GFP protein fused to full length human cyclin E2 [GFP: P42212]
[2] = test system: GFP protein fused to human cyclin E2 splice variant [GFP: P42212]

hemagluttinin-tagged human cdk2
phosphorylation of histone H1 (kinase assay with 32P-ATP, autorad) [1]: can phosphorylate histone H1 | phosphorylation of histone H1 (kinase assay with 32P-ATP, autorad) [2]: cannot phosphorylate histone H1

— patent publication US20030078370
